The target in data set [1] is human CLPB NBD-only variant with E425Q (human) (UniProt Q9H078). Put plainly: cryo-EM structure; NBD^E425Q-ATP dataset; self-assembly into hexamer, heptamer and nonamer.
Data set [2] deals with human CLPB isoform 1 (human). Put plainly: negative staining electron microscopy + cryo-EM 2D classification; CLPB^isoform1-AMPPNP dataset, protein purified from E. coli.
The target of data set [3] is human CLPB NBD-only variant (N-terminal ANK domain truncated) (human) (UniProt Q9H078). Put plainly: cryo-EM 2D classification; NBD^WT-AMPPNP dataset.
Data set [4] deals with the molecule itself. The data set is described as follows: SEC; purification of CLPB, CLPB^Δ201–232 and CLPB^isoform1 complexes by size-exclusion chromatography (S7C–S7E Fig).
Data set [5] deals with the molecule itself. Put plainly: cryo-EM 2D classification; CLPB-ATPγS dataset, control without casein.
Data set [6] concerns the molecule itself. Put plainly: cryo-EM structure; CLPB^E425Q-ATP dataset; sample treated with ATP and about 1 mM BS3, 0.5 mM CHAPSO added; self-assembly of the mutant.
Data set [7] concerns the molecule itself. Put plainly: SEC + other: negative staining electron microscopy; proteins purified from E. coli; Superose 6 Increase 10/300 GL, 20 mM HEPES-KOH pH 6.8, 300 mM KCl, 5 mM MgCl2; with or without AMPPNP; peak fraction seen by nsEM.

“And” between values parts separate entries of the source, which are not always exact repeats. Identical values can stand only once.

By stoichiometry N is commonly meant the number of molecules, sites or subunits per partner or assembly.

Regarding “human CLPB NBD-only variant with E425Q (from UniProt Q9H078-2 1-677) (domain or fragment)”, the stoichiometry N in data set [1] was 6 and 7 and 9.
Consider human CLPB isoform 1 (enzyme), for which the stoichiometry N in data set [2] amounted to 14.
Consider “human CLPB NBD-only variant (N-terminal ANK domain truncated) (from UniProt Q9H078-2 1-677) (domain or fragment)”, for which the stoichiometry N in data set [3] was 6 and 7.

B1: human CLPB (isoform 2) with the ANK insertion deleted (enzyme, UniProt Q9H078-2 127-677, looked up)
chain: YSKSPSNKDAALLEAARANNMQEVSRLLSEGADVNAKHRLGWTALMVAAINRNNSVVQVLLAAGADPNLGDDFSSFKGCTALHYAVLADDYRTVKELLDGGANPLQRNEMGHTPLDYAREGEVMKLLRTSEAKYQEKQRKREAEERRRFPLEQRLKEHIIGQESAIATVGAAIRRKENGWYDEEHPLVFLFLGSSGIGKTELAKQTAKYMHKDAKKGFIRLDMSEFQERHEVAKFIGSPPGYVGHEEGGQLTKKLKQCPNAVVLFDEVDKAHPDVLTIMLQLFDEGRLTDGKGKTIDCKDAIFIMTSNVASDEIAQHALQLRQEALEMSRNRIAENLGDVQISDKITISKNFKENVIRPILKAHFRRDEFLGRINEIVYFLPFCHSELIQLVNKELNFWAKRAKQRHNITLLWDREVADVLVDGYNVHYGARSIKHEVERRVVNQLAAAYEQDLLPGGCTLRITVEDSDKQLLKSPELPSPQAEKRLPKLRLEIIDKDSKTRRLDIRAPLHPEKVCNTI
notes: human CLPB isoform 2 (CLPB-N127) with the insertion between AM2 and AM3 completely deleted; source: E. coli, purified; not shown: His×6-SUMO, N-terminal, cleaved
For B1, the binding result in data set [4] was “binds”.

B2: human CLPB (isoform 2), construct CLPB-N127, wild type (enzyme, UniProt Q9H078-2 127-677, looked up)
chain: YSKSPSNKDAALLEAARANNMQEVSRLLSEGADVNAKHRLGWTALMVAAINRNNSVVQVLLAAGADPNLGDDFSSVYKTAKEQGIHSLEVLITREDDFNNRLNNRASFKGCTALHYAVLADDYRTVKELLDGGANPLQRNEMGHTPLDYAREGEVMKLLRTSEAKYQEKQRKREAEERRRFPLEQRLKEHIIGQESAIATVGAAIRRKENGWYDEEHPLVFLFLGSSGIGKTELAKQTAKYMHKDAKKGFIRLDMSEFQERHEVAKFIGSPPGYVGHEEGGQLTKKLKQCPNAVVLFDEVDKAHPDVLTIMLQLFDEGRLTDGKGKTIDCKDAIFIMTSNVASDEIAQHALQLRQEALEMSRNRIAENLGDVQISDKITISKNFKENVIRPILKAHFRRDEFLGRINEIVYFLPFCHSELIQLVNKELNFWAKRAKQRHNITLLWDREVADVLVDGYNVHYGARSIKHEVERRVVNQLAAAYEQDLLPGGCTLRITVEDSDKQLLKSPELPSPQAEKRLPKLRLEIIDKDSKTRRLDIRAPLHPEKVCNTI
notes: human CLPB, splicing isoform 2, starting from the PARL cleavage site (between C126 and Y127) to the C-terminus; Double-heptamer (tetradecamer) in the apo state; about 1 mM BS3 was added to the samples for cryo-EM; also called SKD3; WT CLPB; source: E. coli Transetta (DE3), purified (ammonium sulfate, Mono Q, TEV cleavage, Superose 6 SEC); not shown: His×6-SUMO, N-terminal, cleaved; copies: 14
On to B2, for which the “stoichiometry N” value in data set [5] came out at 14.

B3: human CLPB (isoform 2, CLPB-N127) Walker B mutant E425Q (enzyme, UniProt Q9H078-2 127-677, looked up)
chain: YSKSPSNKDAALLEAARANNMQEVSRLLSEGADVNAKHRLGWTALMVAAINRNNSVVQVLLAAGADPNLGDDFSSVYKTAKEQGIHSLEVLITREDDFNNRLNNRASFKGCTALHYAVLADDYRTVKELLDGGANPLQRNEMGHTPLDYAREGEVMKLLRTSEAKYQEKQRKREAEERRRFPLEQRLKEHIIGQESAIATVGAAIRRKENGWYDEEHPLVFLFLGSSGIGKTELAKQTAKYMHKDAKKGFIRLDMSEFQERHEVAKFIGSPPGYVGHEEGGQLTKKLKQCPNAVVLFDQVDKAHPDVLTIMLQLFDEGRLTDGKGKTIDCKDAIFIMTSNVASDEIAQHALQLRQEALEMSRNRIAENLGDVQISDKITISKNFKENVIRPILKAHFRRDEFLGRINEIVYFLPFCHSELIQLVNKELNFWAKRAKQRHNITLLWDREVADVLVDGYNVHYGARSIKHEVERRVVNQLAAAYEQDLLPGGCTLRITVEDSDKQLLKSPELPSPQAEKRLPKLRLEIIDKDSKTRRLDIRAPLHPEKVCNTI
notes: human CLPB isoform 2 from the PARL cleavage site (Y127) to the C-terminus, with E425Q; Double-hexamer (dodecamer) with a co-purified endogenous peptide in the central channel; also called CLPB^E425Q; source: E. coli, purified as the wild type; not shown: His×6-SUMO, N-terminal, cleaved; copies: 12
Regarding B3, the “stoichiometry N” value in data set [6] came out at 12.

B4: human CLPB (isoform 2) R178E (enzyme, UniProt Q9H078-2 127-677, looked up)
chain: YSKSPSNKDAALLEAARANNMQEVSRLLSEGADVNAKHRLGWTALMVAAINENNSVVQVLLAAGADPNLGDDFSSVYKTAKEQGIHSLEVLITREDDFNNRLNNRASFKGCTALHYAVLADDYRTVKELLDGGANPLQRNEMGHTPLDYAREGEVMKLLRTSEAKYQEKQRKREAEERRRFPLEQRLKEHIIGQESAIATVGAAIRRKENGWYDEEHPLVFLFLGSSGIGKTELAKQTAKYMHKDAKKGFIRLDMSEFQERHEVAKFIGSPPGYVGHEEGGQLTKKLKQCPNAVVLFDEVDKAHPDVLTIMLQLFDEGRLTDGKGKTIDCKDAIFIMTSNVASDEIAQHALQLRQEALEMSRNRIAENLGDVQISDKITISKNFKENVIRPILKAHFRRDEFLGRINEIVYFLPFCHSELIQLVNKELNFWAKRAKQRHNITLLWDREVADVLVDGYNVHYGARSIKHEVERRVVNQLAAAYEQDLLPGGCTLRITVEDSDKQLLKSPELPSPQAEKRLPKLRLEIIDKDSKTRRLDIRAPLHPEKVCNTI
notes: human CLPB isoform 2 (CLPB-N127) with R178E; also called CLPB^R178E; source: E. coli, purified; not shown: His×6-SUMO, N-terminal, cleaved
As for B4, in data set [7], the binding result was “binds”.

B5: human CLPB (isoform 2) R227E (enzyme, UniProt Q9H078-2 127-677, looked up)
chain: YSKSPSNKDAALLEAARANNMQEVSRLLSEGADVNAKHRLGWTALMVAAINRNNSVVQVLLAAGADPNLGDDFSSVYKTAKEQGIHSLEVLITREDDFNNELNNRASFKGCTALHYAVLADDYRTVKELLDGGANPLQRNEMGHTPLDYAREGEVMKLLRTSEAKYQEKQRKREAEERRRFPLEQRLKEHIIGQESAIATVGAAIRRKENGWYDEEHPLVFLFLGSSGIGKTELAKQTAKYMHKDAKKGFIRLDMSEFQERHEVAKFIGSPPGYVGHEEGGQLTKKLKQCPNAVVLFDEVDKAHPDVLTIMLQLFDEGRLTDGKGKTIDCKDAIFIMTSNVASDEIAQHALQLRQEALEMSRNRIAENLGDVQISDKITISKNFKENVIRPILKAHFRRDEFLGRINEIVYFLPFCHSELIQLVNKELNFWAKRAKQRHNITLLWDREVADVLVDGYNVHYGARSIKHEVERRVVNQLAAAYEQDLLPGGCTLRITVEDSDKQLLKSPELPSPQAEKRLPKLRLEIIDKDSKTRRLDIRAPLHPEKVCNTI
notes: human CLPB isoform 2 (CLPB-N127) with R227E; also called CLPB^R227E; source: E. coli, purified; not shown: His×6-SUMO, N-terminal, cleaved
As to B5, the binding result in data set [7] is “binds”.

(Values after publication PMC9934407, “Comprehensive structural characterization of the human AAA+ disaggregase CLPB in the apo- and substrate-bound states reveals a unique mode of action driven by oligomerization” (PLOS Biology, 2023).)
